Legend:
human IgE (human) = experiment: imaging weak measurement, aptamer-antibody sandwich; conditions: 25 ng/mL; CA125 antibody (CA125 gave 665.83 a.u.); 5'-NH2; PBS+ (10 mM PBS, 5 mM MgCl2) as reference channel; aptamer 2 uM immobilized on polydopamine-coated prism, 2% blocking solution; readout at 55 min; pH and …
human IgG (human) = experiment: as above; conditions: 25 ng/mL; CA125 antibody (CA125 gave 665.83 a.u.); 5'-NH2; PBS+ (10 mM PBS, 5 mM MgCl2) as reference channel; aptamer 2 uM immobilized on polydopamine-coated prism, 2% blocking solution; readout at 55 min; pH and …
[1] = target: CA125 (carbohydrate antigen 125) (UniProt Q8WXI7 1-14451); experiment: imaging weak measurement, aptamer-antibody sandwich; CA125 50 U/mL; CA125 antibody; PBS+ (10 mM PBS, 5 mM MgCl2) as reference channel; aptamer 2 uM immobilized on polydopamine-coated prism, 2% blocking solution; readout at 55 min; pH and temperature not stated; conditions: protein: commercial

| Molecule | binding signal (human IgE (human)) [a.u.] | binding signal (human IgG (human)) [a.u.] | binding signal [1] [a.u.] |
| --- | --- | --- | --- |
| CTCACTACTATAGGGATAGGGAGACAAGAATAAACGCTCAA [CA125-1 aptamer] | < 35 | < 35 |  |
| CTCACTACTATAGGGATAGGGAGACAAGAATAAACGCTCAA (ssDNA, 5'-NH2) [CA125-1 aptamer] |  |  | 735 |
| TTATCGTACGACAGTCATCCTACAC (ssDNA, 5'-NH2-C6) [CA125-2 aptamer] |  |  | 695 |
| TATCAATTACTTACCCTAGTGGTGTGATGTCGTATGGATG (ssDNA, 5'-NH2-C6) [CA125-3 aptamer] |  |  | 647 |

From PMC12109719, “Synergistic Signal Amplification via Weak Value Amplification Effect and Sandwich Structure for Highly Sensitive and Specific Real-Time Detection of CA125”
